Where a chain is given by its changes, count along the chain named. Numbered stars: 1 amine (or outer) side, 2 acyl side, 3 side chain; on linkers, the order of the positions; unused ones are H or OH. Square brackets hold non-standard residues; d marks the D form. Side chains are listed from the residue outwards. Ends that are not written are not given here. * marks the point of attachment. C18 diacid = O=C(O)CCCCCCCCCCCCCCCCC(=O)*; αMePhe(2-F) = C[C@](N)(Cc1ccccc1F)C(=O)O; γGlu = O=C(O)[C@H](CCC(=O)[*:2])N[*:1]; αMeL = CC(C)C[C@](C)(N)C(=O)O; AEEA = NCCOCCOCC(=O)O; Aib = CC(C)(N)C(=O)O
What was measured:
Experiment in all cases: cell-based or functional assay
[1] = target: human GLP-1 receptor (GLP-1R) (human, UniProt P43220 24-463)
[2] = target: T1, human gastric inhibitory peptide receptor (GIPR) (human, UniProt P48546 22-466)
T1 sequence (looked up): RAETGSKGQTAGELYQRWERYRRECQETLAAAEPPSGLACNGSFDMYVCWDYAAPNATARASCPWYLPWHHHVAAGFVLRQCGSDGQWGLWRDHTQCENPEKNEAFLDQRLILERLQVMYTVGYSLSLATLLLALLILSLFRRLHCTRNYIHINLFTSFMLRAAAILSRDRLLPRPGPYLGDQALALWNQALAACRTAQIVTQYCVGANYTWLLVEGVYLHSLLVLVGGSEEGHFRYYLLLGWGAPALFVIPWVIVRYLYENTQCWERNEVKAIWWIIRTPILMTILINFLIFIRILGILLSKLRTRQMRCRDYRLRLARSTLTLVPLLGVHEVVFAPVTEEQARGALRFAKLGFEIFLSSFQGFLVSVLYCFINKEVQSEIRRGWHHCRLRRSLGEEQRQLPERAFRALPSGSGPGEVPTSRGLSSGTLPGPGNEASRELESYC

[3] = target: T2, human gastric inhibitory peptide receptor (GIPR) (human), P48546
T2 chain: T1 sequence (looked up)

[4] = target: T3, human GLP-1 receptor (GLP-1R) (human), P43220
T3 chain: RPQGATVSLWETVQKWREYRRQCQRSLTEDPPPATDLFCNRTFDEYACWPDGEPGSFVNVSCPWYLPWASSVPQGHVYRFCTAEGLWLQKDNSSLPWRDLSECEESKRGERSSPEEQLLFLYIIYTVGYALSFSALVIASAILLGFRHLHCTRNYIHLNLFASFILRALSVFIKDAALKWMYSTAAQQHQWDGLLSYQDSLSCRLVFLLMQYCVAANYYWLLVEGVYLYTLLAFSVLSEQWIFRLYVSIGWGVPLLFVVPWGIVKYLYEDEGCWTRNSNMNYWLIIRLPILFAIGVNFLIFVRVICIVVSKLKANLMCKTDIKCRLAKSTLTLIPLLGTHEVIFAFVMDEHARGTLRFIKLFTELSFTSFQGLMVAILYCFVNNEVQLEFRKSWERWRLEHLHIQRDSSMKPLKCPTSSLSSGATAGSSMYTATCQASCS

B1: Y-Aib-EGTFTSDYSI-αMeL-LDKK((2[2-(2-Amino-ethoxy)-ethoxy]-acetyl)2-(γ-Glu)-CO-(CH2)18-CO2H)AQ-Aib-EFIE-αMeY-LIAGGPSSGAPPPS-NH2 (peptide)
peptide: YXEGTFTSDYSIXLDKKAQXEFIEXLIAGGPSSGAPPPS
modifications: Aib2; αMeL13; K17 conjugated to (2-[2-(2-Amino-ethoxy)-ethoxy]-acetyl)2-(γ-Glu)-CO-(CH2)18-CO2H; Aib20; αMeY25; C-terminal amide (NH2)
hGLP1R cAMP EC50 ratio [1]: 0.386
hGIPR cAMP EC50 ratio [2]: 5.85

B2: (D-Tyr)-Aib-EGTFTSDYSI-αMeL-LDKK((2-[2-(2-Amino-ethoxy)-ethoxy]-acetyl)-(γ-Glu)-CO-(CH2)18-CO2H)AQ-Aib-EFIE-αMeY-LIAGGPSSGAPPPS-NH2 (peptide)
peptide: B1 peptide with Y1X
modifications: D-Tyr1; Aib2; αMeL13; K17 conjugated to (2-[2-(2-Amino-ethoxy)-ethoxy]-acetyl)-(γ-Glu)-CO-(CH2)18-CO2H; Aib20; αMeY25; C-terminal amide (NH2)
hGLP1R cAMP EC50 ratio [1]: 0.0741
hGIPR cAMP EC50 ratio [2]: 0.68

B3: (D-Tyr)-Aib-EGTFTSDYSI-αMeL-LD-Orn-K((2-[2-(2-Amino-ethoxy)-ethoxy]-acetyl)2-(γ-Glu)-CO-(CH2)18-CO2H)AQ-Aib-EFIE-αMeY-LIEGGPSSGAPPPS-NH2 (peptide)
peptide: B1 peptide with Y1X, K16X, A28E
modifications: D-Tyr1; Aib2; αMeL13; Orn16; K17 conjugated to (2-[2-(2-Amino-ethoxy)-ethoxy]-acetyl)2-(γ-Glu)-CO-(CH2)18-CO2H; Aib20; αMeY25; C-terminal amide (NH2)
hGLP1R cAMP EC50 ratio [1]: 0.115
hGIPR cAMP EC50 ratio [2]: 0.374

B4: (D-Tyr)-Aib-EGTFTSDYSI-αMeL-LDKK((2-[2-(2-Amino-ethoxy)-ethoxy]-acetyl)2-(γ-Glu)-CO-(CH2)18-CO2H)AQ-Aib-EFIE-αMeY-LIEGGPSSGAPPPS-NH2 (peptide)
peptide: B1 peptide with Y1X, A28E
modifications: D-Tyr1; Aib2; αMeL13; K17 conjugated to (2-[2-(2-Amino-ethoxy)-ethoxy]-acetyl)2-(γ-Glu)-CO-(CH2)18-CO2H; Aib20; αMeY25; C-terminal amide (NH2)
hGLP1R cAMP EC50 ratio [1]: 0.114
hGIPR cAMP EC50 ratio [2]: 0.672

B5: (D-Tyr)-Aib-EGTFTSDYSI-αMeL-LDKK((2-[2-(2-Amino-ethoxy)-ethoxy]-acetyl)2-(γ-Glu)-CO-(CH2)16-CO2H)AQ-Aib-EFIE-αMeY-LIAGGPSSGAPPPS-NH2 (peptide)
peptide: B1 peptide with Y1X
modifications: D-Tyr1; Aib2; αMeL13; K17 conjugated to (2-[2-(2-Amino-ethoxy)-ethoxy]-acetyl)2-(γ-Glu)-CO-(CH2)16-CO2H; Aib20; αMeY25; C-terminal amide (NH2)
hGLP1R cAMP EC50 ratio [1]: 0.169
hGIPR cAMP EC50 ratio [2]: 1.76

B6: (D-Tyr)-Aib-EGTFTSDYSI-αMeL-LD-Orn-K((2-[2-(2-Amino-ethoxy)-ethoxy]-acetyl)2-(γ-Glu)-CO-(CH2)16-CO2H)AQ-Aib-AFV-(D-Glu)-YLIAGGPSSGAPPPS-NH2 (peptide)
peptide: XXEGTFTSDYSIXLDXKAQXAFVXYLIAGGPSSGAPPPS
modifications: D-Tyr1; Aib2; αMeL13; Orn16; K17 conjugated to (2-[2-(2-Amino-ethoxy)-ethoxy]-acetyl)2-(γ-Glu)-CO-(CH2)16-CO2H; Aib20; D-Glu24; C-terminal amide (NH2)
hGLP1R cAMP EC50 ratio [1]: 0.0303
hGIPR cAMP EC50 ratio [2]: 0.347

B7: (D-Tyr)-Aib-EGTFTSDYSI-αMeL-LD-Orn-K((2-[2-(2-Amino-ethoxy)-ethoxy]-acetyl)2-(γ-Glu)-CO-(CH2)16-CO2H)AQ-Aib-EFIE-αMeY-LIAGGPSSGAPPPS-NH2 (peptide)
peptide: B1 peptide with Y1X, K16X
modifications: D-Tyr1; Aib2; αMeL13; Orn16; K17 conjugated to (2-[2-(2-Amino-ethoxy)-ethoxy]-acetyl)2-(γ-Glu)-CO-(CH2)16-CO2H; Aib20; αMeY25; C-terminal amide (NH2)
hGLP1R cAMP EC50 ratio [1]: 0.178
hGIPR cAMP EC50 ratio [2]: 1.13

B8: (D-Tyr)-Aib-EGTFTSDYSI-αMeL-LD-Orn-K((2-[2-(2-Amino-ethoxy)-ethoxy]-acetyl)-(γ-Glu)-CO-(CH2)18-CO2H)AQ-Aib-EFIEYLIAGGPSSGAPPPS-NH2 (peptide)
peptide: B6 peptide with A21E, V23I, X24E
modifications: D-Tyr1; Aib2; αMeL13; Orn16; K17 conjugated to (2-[2-(2-Amino-ethoxy)-ethoxy]-acetyl)-(γ-Glu)-CO-(CH2)18-CO2H; Aib20; C-terminal amide (NH2)
hGLP1R cAMP EC50 ratio [1]: 0.206
hGIPR cAMP EC50 ratio [2]: 0.393

B9: (D-Tyr)-Aib-EGTFTSDYSI-αMeL-LDKK((2-[2-(2-Amino-ethoxy)-ethoxy]-acetyl)2-(γ-Glu)-CO-(CH2)16-CO2H)AQ-Aib-AFIE-αMeY-LIAGGPSSGAPPPS-NH2 (peptide)
peptide: B1 peptide with Y1X, E21A
modifications: D-Tyr1; Aib2; αMeL13; K17 conjugated to (2-[2-(2-Amino-ethoxy)-ethoxy]-acetyl)2-(γ-Glu)-CO-(CH2)16-CO2H; Aib20; αMeY25; C-terminal amide (NH2)
hGLP1R cAMP EC50 ratio [1]: 0.159
hGIPR cAMP EC50 ratio [2]: 0.734

B10: (D-Tyr)-Aib-EGTFTSDYSI-αMeL-LD-Orn-K((2-[2-(2-Amino-ethoxy)-ethoxy]-acetyl)2-(γ-Glu)-CO-(CH2)18-CO2H)AQ-Aib-AFIE-αMeY-LIAGGPSSGAPPPS-NH2 (peptide)
peptide: B6 peptide with V23I, X24E, Y25X
modifications: D-Tyr1; Aib2; αMeL13; Orn16; K17 conjugated to (2-[2-(2-Amino-ethoxy)-ethoxy]-acetyl)2-(γ-Glu)-CO-(CH2)18-CO2H; Aib20; αMeY25; C-terminal amide (NH2)
hGLP1R cAMP EC50 ratio [1]: 0.074
hGIPR cAMP EC50 ratio [2]: 0.598

B11: (D-Tyr)-Aib-EGTFTSDYSI-αMeL-LDKK((2-[2-(2-Amino-ethoxy)-ethoxy]-acetyl)2-(γ-Glu)-CO-(CH2)18-CO2H)AQ-Aib-AFIE-αMeY-LIAGGPSSGAPPPS-NH2 (peptide)
peptide: B1 peptide with Y1X, E21A
modifications: D-Tyr1; Aib2; αMeL13; K17 conjugated to (2-[2-(2-Amino-ethoxy)-ethoxy]-acetyl)2-(γ-Glu)-CO-(CH2)18-CO2H; Aib20; αMeY25; C-terminal amide (NH2)
hGLP1R cAMP EC50 ratio [1]: 0.155
hGIPR cAMP EC50 ratio [2]: 0.784

B12: (D-Tyr)-Aib-EGTFTSDYSI-αMeL-LD-Orn-K((2-[2-(2-Amino-ethoxy)-ethoxy]-acetyl)2-(γ-Glu)-CO-(CH2)18-CO2H)AQ-Aib-DFIEYLIAGGPSSGAPPPS-NH2 (peptide)
peptide: B6 peptide with A21D, V23I, X24E
modifications: D-Tyr1; Aib2; αMeL13; Orn16; K17 conjugated to (2-[2-(2-Amino-ethoxy)-ethoxy]-acetyl)2-(γ-Glu)-CO-(CH2)18-CO2H; Aib20; C-terminal amide (NH2)
hGLP1R cAMP EC50 ratio [1]: 0.319
hGIPR cAMP EC50 ratio [2]: 0.499

B13: (D-Tyr)-Aib-EGTFTSDYSI-αMeL-LD-Orn-K((2-[2-(2-Amino-ethoxy)-ethoxy]-acetyl)2-(γ-Glu)-CO-(CH2)16-CO2H)AQ-Aib-EFIEYLIAGGPSSGAPPPS-NH2 (peptide)
peptide: B6 peptide with A21E, V23I, X24E
modifications: D-Tyr1; Aib2; αMeL13; Orn16; K17 conjugated to (2-[2-(2-Amino-ethoxy)-ethoxy]-acetyl)2-(γ-Glu)-CO-(CH2)16-CO2H; Aib20; C-terminal amide (NH2)
hGLP1R cAMP EC50 ratio [1]: 0.299
hGIPR cAMP EC50 ratio [2]: 0.109

B14: (D-Tyr)-Aib-EGTFTSDYSI-αMeL-LDKK((2-[2-(2-Amino-ethoxy)-ethoxy]-acetyl)-(γ-Glu)-CO-(CH2)18-CO2H)AQ-Aib-AFIE-αMeY-LIAGGPSSGAPPPS-NH2 (peptide)
peptide: B1 peptide with Y1X, E21A
modifications: D-Tyr1; Aib2; αMeL13; K17 conjugated to (2-[2-(2-Amino-ethoxy)-ethoxy]-acetyl)-(γ-Glu)-CO-(CH2)18-CO2H; Aib20; αMeY25; C-terminal amide (NH2)
hGLP1R cAMP EC50 ratio [1]: 0.0621
hGIPR cAMP EC50 ratio [2]: 0.287

B15: (D-Tyr)-Aib-EGTFTSDYSI-αMeL-LD-Orn-K((2-[2-(2-Amino-ethoxy)-ethoxy]-acetyl)2-(γ-Glu)-CO-(CH2)16-CO2H)AQ-Aib-AFIE-αMeY-LIAGGPSSGAPPPS-NH2 (peptide)
peptide: B6 peptide with V23I, X24E, Y25X
modifications: D-Tyr1; Aib2; αMeL13; Orn16; K17 conjugated to (2-[2-(2-Amino-ethoxy)-ethoxy]-acetyl)2-(γ-Glu)-CO-(CH2)16-CO2H; Aib20; αMeY25; C-terminal amide (NH2)
hGLP1R cAMP EC50 ratio [1]: 0.199
hGIPR cAMP EC50 ratio [2]: 0.976

B16: (D-Tyr)-Aib-EGTFTSDYSI-αMeL-LDKK((2-[2-(2-Amino-ethoxy)-ethoxy]-acetyl)-(γ-Glu)-CO-(CH2)18-CO2H)AQ-Aib-EFIEYLIAGGPSSGAPPPS-NH2 (peptide)
peptide: B1 peptide with Y1X, X25Y
modifications: D-Tyr1; Aib2; αMeL13; K17 conjugated to (2-[2-(2-Amino-ethoxy)-ethoxy]-acetyl)-(γ-Glu)-CO-(CH2)18-CO2H; Aib20; C-terminal amide (NH2)
hGLP1R cAMP EC50 ratio [1]: 0.142
hGIPR cAMP EC50 ratio [2]: 0.793

Y[Aib]EGT[αMePhe(2-F)]TSDHSI[αMeL]LDEK([AEEA-AEEA-γGlu-C18 diacid])AQ[Aib]HFI[dE]YLIEGG-NH2 (not fully specified) [Example 180]
hGIPR cAMP EC50 ratio [3]: 0.133
hGIPR cAMP Rel EC50 [3]: 0.79 nM
hGLP1R cAMP EC50 ratio [4]: 0.0212
hGLP1R cAMP Rel EC50 [4]: 2.16 nM

B17: (D-Tyr)-Aib-EGTFTSDYSI-αMeL-LD-Orn-K((2-[2-(2-Amino-ethoxy)-ethoxy]-acetyl)2-(c-Glu)-CO-(CH2)18-CO2H)AQ-Aib-EFIEYLIAGGPSSG-NH2 (peptide)
peptide: XXEGTFTSDYSIXLDXKAQXEFIEYLIAGGPSSG
modifications: D-Tyr1; Aib2; αMeL13; Orn16; K17 conjugated to (2-[2-(2-Amino-ethoxy)-ethoxy]-acetyl)2-(c-Glu)-CO-(CH2)18-CO2H ('c-Glu' as printed, presumably γ-Glu); Aib20; C-terminal amide (NH2)
hGLP1R cAMP EC50 ratio [1]: 0.172
hGIPR cAMP EC50 ratio [2]: 0.704

Y[Aib]EGT[αMePhe(2-F)]TSDHSI[αMeL]LDEK([AEEA-AEEA-γGlu-C18 diacid])AQ[Aib]HFI[dE]YLIEGGPSSG-NH2 (not fully specified) [Example 179]
hGIPR cAMP EC50 ratio [3]: 0.0575
hGIPR cAMP Rel EC50 [3]: 1.83 nM
hGLP1R cAMP EC50 ratio [4]: 0.0169
hGLP1R cAMP Rel EC50 [4]: 2.7 nM

— patent publication US20200024322A1 (Eli Lilly, published 2020)
